For the assay, the target named is PDL1 on the surface of TC-1 cells (murine (TC-1 murine tumor cell line)) (UniProt Q9EP73). Kind of assay: flow cytometry on TC-1 cells, isotype background control.
UniProt Q9EP73, sequence (Q9EP73 19-290): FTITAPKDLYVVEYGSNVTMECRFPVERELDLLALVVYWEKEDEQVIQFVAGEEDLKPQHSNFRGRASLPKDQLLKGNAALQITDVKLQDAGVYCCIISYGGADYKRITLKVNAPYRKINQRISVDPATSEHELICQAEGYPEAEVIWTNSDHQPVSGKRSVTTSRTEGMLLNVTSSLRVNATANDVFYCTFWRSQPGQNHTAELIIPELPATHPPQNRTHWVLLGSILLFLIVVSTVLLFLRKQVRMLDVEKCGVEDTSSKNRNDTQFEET

Take PE-conjugated isotype control antibody: the median fluorescent intensity (MFI) turned out to be 184 MFI.

The values above are taken from US20180344832A1.
